The values below come from publication doi:10.1101/2022.02.27.482175, “Transient DNA binding to gapped DNA substrates links DNA sequence to the single-molecule kinetics of protein-DNA interactions”.

By Kd is commonly meant the equilibrium constant for the complex coming apart.

Details in all cases: protein: recombinant; tags: His6; Alexa647 label; chain copies: 2; label: 5' biotin strand 1; Cy3B on strand 2 (position 13); blunt
Data set [1] concerns the target T1, CAP (catabolite activator protein), Alexa647-CAP (UniProt P0ACJ8 2-210, H18C;C179S). The data set can be described thus: single-molecule TIRF (koff/kon); 0.2 mM cAMP, 10 mM Mg2+; kon 9.73e6 M-1s-1, t2 8.45 s; 1.5 nM CAP, 0.2 mM cAMP, 40 mM Tris pH 8, 100 mM KCl, 10 mM MgCl2, 5% glycerol, 1 mM TROLOX, glucose oxidase/catalase oxygen scavenger (Methods also lists 40% glucose), 27-30 C.

Data set [2] deals with T1, CAP (catabolite activator protein), …. The data set can be described thus: single-molecule TIRF (koff/kon); 0.2 mM cAMP, 10 mM Mg2+; kon 10.24e6 M-1s-1, t2 3.3 s; 1.5 nM CAP, 0.2 mM cAMP, 40 mM Tris pH 8, 100 mM KCl, 10 mM MgCl2, 5% glycerol, 1 mM TROLOX, glucose oxidase/catalase oxygen scavenger (Methods also lists 40% glucose), 27-30 C.
Data set [3] shares this target. The data set can be described thus: single-molecule TIRF (koff/kon); 0.2 mM cAMP, 10 mM Mg2+; kon 8.74e6 M-1s-1, t2 5.2 s; 1.5 nM CAP, 0.2 mM cAMP, 40 mM Tris pH 8, 100 mM KCl, 10 mM MgCl2, 5% glycerol, 1 mM TROLOX, glucose oxidase/catalase oxygen scavenger (Methods also lists 40% glucose), 27-30 C.

B1: CAPcons DNA (GSeq-CAP-(1-49)) (dsDNA)
DNA 1: GTGCCTAAAATGTGATCTAGATCACATTTATTGCGTAGAGCTCACTGCC
DNA 2: GGCAGTGAGCTCTACGCAATAAATGTGATCTAGATCACATTTTAGGCAC
As for B1, the Kd in data set [1] is around 12 nM.

B2: CAPmut2 DNA (GP25,CP38) (dsDNA)
DNA 1: GTGCCTAAAATCTGATCTAGATCAGATTTATTGCGTAGAGCTCACTGCC
DNA 2: GGCAGTGAGCTCTACGCAATAAATCTGATCTAGATCAGATTTTAGGCAC
Consider B2, for which the equilibrium dissociation constant (Kd) in data set [2] is around 30 nM.

B3: CAPmut1 DNA (GP25/CP25) (dsDNA)
DNA 1: GTGCCTAAAATGTGATCTAGATCAGATTTATTGCGTAGAGCTCACTGCC
DNA 2: GGCAGTGAGCTCTACGCAATAAATCTGATCTAGATCACATTTTAGGCAC
B3: the Kd in data set [3] was around 22 nM.
